*1 amine or outer side, *2 acyl side, *3 side chain or, on linkers, in order; H or OH if unused. Where a SMILES comes first, the peptide text is derived from it. Where no end group is shown, it is not given here. [ ]: non-standard residue; d: D form. Cys(O2H) = cysteine sulfinic acid (N-terminal cysteine sulfinylated), O=C([C@H](CS(=O)O[*:3])N[*:1])[*:2]
T1: ADO (2-aminoethanethiol dioxygenase), iron-bound wild type (Homo sapiens, UniProt Q96SZ5)
T1 construct: Full-length human ADO (UniProt ID: Q96SZ5) was cloned; made in house; host or cells: Rosetta2(DE3) Escherichia coli
T1 sequence (Q96SZ5 1-270): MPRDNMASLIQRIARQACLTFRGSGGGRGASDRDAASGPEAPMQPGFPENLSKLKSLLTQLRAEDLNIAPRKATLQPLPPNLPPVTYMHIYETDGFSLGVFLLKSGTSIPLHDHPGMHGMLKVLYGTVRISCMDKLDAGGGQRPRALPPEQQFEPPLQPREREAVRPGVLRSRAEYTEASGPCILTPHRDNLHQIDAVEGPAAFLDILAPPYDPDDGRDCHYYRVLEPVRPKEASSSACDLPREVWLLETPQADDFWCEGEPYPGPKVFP

T2: 2-aminoethanethiol (cysteamine) dioxygenase (ADO), biotinylated, for SPR (human, UniProt Q96SZ5 1-270, biotin (N terminally biotinylated; 0.2 mM biotin added at induction))
T2 chain: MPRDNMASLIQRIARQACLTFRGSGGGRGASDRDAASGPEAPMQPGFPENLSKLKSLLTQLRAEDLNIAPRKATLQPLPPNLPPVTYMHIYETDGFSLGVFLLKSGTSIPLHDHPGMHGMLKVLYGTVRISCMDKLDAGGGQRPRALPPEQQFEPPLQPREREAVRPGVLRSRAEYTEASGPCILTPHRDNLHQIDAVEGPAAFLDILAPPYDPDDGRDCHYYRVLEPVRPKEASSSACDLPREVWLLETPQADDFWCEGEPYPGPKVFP

T3: 2-aminoethanethiol (cysteamine) dioxygenase (ADO), biotinylated, for SPR (human, UniProt Q96SZ5 1-270, biotin (N terminally biotinylated; 0.2 mM biotin added at induction))
T3 construct: 2-aminoethanethiol (cysteamine) dioxygenase (ADO), human, UniProt Q96SZ5, full length; In the chelation experiments the metal was removed and iron put back on the chip (see assays a2, a3); Used also as the ADO of the functional rows, although the enzyme assays used the pET28a-ADO construct (N-terminal His tag); also called WT ADO; native ADO; source: E. coli Rosetta2(DE3), pQE80L-Navi construct, …
T3 sequence (looked up): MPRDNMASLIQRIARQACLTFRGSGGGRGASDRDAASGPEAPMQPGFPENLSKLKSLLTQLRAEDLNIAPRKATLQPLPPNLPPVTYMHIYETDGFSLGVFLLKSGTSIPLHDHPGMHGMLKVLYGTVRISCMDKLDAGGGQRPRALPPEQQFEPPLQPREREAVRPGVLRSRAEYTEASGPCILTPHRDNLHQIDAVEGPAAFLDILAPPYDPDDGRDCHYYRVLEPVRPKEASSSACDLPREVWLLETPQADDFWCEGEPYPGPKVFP


The molecules below were run against T1, ADO (2-aminoethanethiol dioxygenase), iron-bound wild type (assay: SPR binding of peptide/protein substrates to immobilised ADO). Conditions: SPR steady state, 1:1 binding model, biotinylated ADO on Biotin CAP chip, 4 °C, 20 mM Hepes pH 7.5, 500 mM NaCl, 10 mM DTT, 0.1% tween-20; geometric mean (± SD) of minimum three independent measurements.
Excerpt: ADO catalyzes the O2-dependent sulfinylation of Nt-cys residues, which reportedly bind to the iron cofactor in a monodentate arrangement through ligation of the thiol group ([14], [15]). To test the importance of Nt-cys modifications and substitutions on ADO association, a SPR assay was established. […] Data collected under steady state conditions is presented in the main text and kinetic constants are provided in the Tables S1–S8 (alongside steady state measurements). All measurements were collected at 4 °C to minimize enzyme activity.
SPR measurements were made using a Biacore T200 (Cytiva) instrument and data were analyzed using the Biacore Insight Evaluation Software (Cytiva; https://www.cytivalifesciences.com/en/us/shop/protein-analysis/spr-label-free-analysis/spr-software-and-extensions/biacore-insight-evaluation-software-p-23528). Biotinylated-ADO was immobilized on a Biotin CAP chip (Cytiva) with a target density of ∼2500 to 3000 RU and peptide/protein substrates were injected over the chip. […] A buffer comprising 20 mM Hepes pH 7.5, 500 mM NaCl, 10 mM DTT, and 0.1% (v/v) tween-20 was used as the running buffer at a flow rate of 50 μl/min.
For metal-chelation experiments, a mixture of 10 mM 1, 10-phenanthroline and 100 mM EDTA (pH 8) was injected onto the chip using 10 × 60 s injections at a 100 μl/min flow rate. […] The instrument and chip were primed into buffer excluding reducing agents before conducting metal chelation and iron reconstitution.

Molecule	Equilibrium dissociation constant KD
K3L: RGS5 third position mutant peptide (CLGLAALPHSCLER)	the most tolerated
RGS5-Ox: Nt-sulfinylated RGS5 peptide acquired through preincubation with ADO ([Cys(O2H)]KGLAALPHSCLER)	No binding
RGS5-C2A: RGS5 peptide with Nt-cys to alanine (AKGLAALPHSCLER)	No binding
K3W: RGS5 third position mutant peptide (CWGLAALPHSCLER)	the most tolerated
K3Y: RGS5 third position mutant peptide (CYGLAALPHSCLER)	the most tolerated
K3R: RGS5 third position mutant peptide (CRGLAALPHSCLER)	the most tolerated
Ac-RGS5: Nt-acetylated RGS5 peptide (Ac-CKGLAALPHSCLER; cysteine pairing not given here)	No binding
RGS5^FL-C2A: full-length RGS5 C2A mutant (protein, left off: His tag, N-terminal, cleaved | SUMO, N-terminal, cleaved, full-length RGS5 C2A mutant) MAKGLAALPHSCLERAKEIKIKLGILLQKPDSVGDLVIPYNEKPEKPAKTQKTSLDEALQWRDSLDKLLQNNYGLASFKSFLKSEFSEENLEFWIACEDYKKIKSPAKMAEKAKQIYEEFIQTEAPKEVNIDHFTKDITMKNLVEPSLSSFDMAQKRIHALMEKDSLPRFVRSEFYQELIK	prevented binding

Same assay, conditions: SPR steady state, 1:1 binding model, biotinylated ADO on Biotin CAP chip, 4 °C, 20 mM Hepes pH 7.5, 500 mM NaCl, 10 mM DTT, 0.1% tween-20; geometric mean (± SD) of minimum three independent measurements; read-out: Equilibrium dissociation constant KD

Molecule	Kd [nM]
CC(C)C[C@H](NC(=O)CNC(=O)[C@H](CCCCN)NC(=O)[C@@H](N)CS)C(=O)N[C@@H](C)C(=O)N[C@@H](C)C(=O)N[C@@H](CC(C)C)C(=O)N1CCC[C@H]1C(=O)N[C@@H](Cc1c[nH]cn1)C(=O)N[C@@H](CO)C(=O)N[C@@H](CS)C(=O)N[C@@H](CC(C)C)C(=O)N[C@@H](C)C(=O)N[C@@H](CCCNC(=N)N)C(N)=O [RGS5-E14A] (H-CKGLAALPHSCLAR-NH2)	260 ± 42
NC(=O)[C@@H]1CCCN1C(=O)[C@H](Cc1ccccc1)NC(=O)[C@@H](N)CS [IL32 tripeptide] (H-Cys-Phe-Pro-NH2; C-terminus assumed)	130 ± 3.7
CC(C)C[C@H](NC(=O)CNC(=O)[C@H](CCCCN)NC(=O)[C@@H](N)CS)C(=O)N[C@@H](C)C(=O)N[C@@H](C)C(=O)N[C@@H](CC(C)C)C(=O)N1CCC[C@H]1C(=O)N[C@@H](Cc1c[nH]cn1)C(=O)N[C@@H](CO)C(=O)N[C@@H](CS)C(=O)N[C@@H](C)C(=O)N[C@@H](CCC(=O)O)C(=O)N[C@@H](CCCNC(=N)N)C(N)=O [RGS5-L13A] (H-CKGLAALPHSCAER-NH2)	260 ± 32
SKGLAALPHSCLER-NH2 [RGS5-C2S]	42000 ± 5500
CC(C)C[C@H](NC(=O)CNC(=O)[C@H](CCCCN)NC(=O)[C@@H](N)CS)C(=O)N[C@@H](C)C(=O)N[C@@H](C)C(=O)N[C@@H](CC(C)C)C(=O)N[C@@H](C)C(=O)N[C@@H](Cc1c[nH]cn1)C(=O)N[C@@H](CO)C(=O)N[C@@H](CS)C(=O)N[C@@H](CC(C)C)C(=O)N[C@@H](CCC(=O)O)C(=O)N[C@@H](CCCNC(=N)N)C(N)=O [RGS5-P9A] (H-CKGLAALAHSCLER-NH2)	250 ± 23

Same assay, conditions: SPR, 4 °C; relative to native IL32 peptide

Molecule	Fold improvement in binding affinity (stronger) relative to native 14-residue peptide
H-CFPAVLSDDMKKLK-NH2 (C-terminus assumed) [IL32-K5A]	approximately 2 fold
NC(=O)[C@@H]1CCCN1C(=O)[C@H](Cc1ccccc1)NC(=O)[C@@H](N)CS [IL32 tripeptide] (H-Cys-Phe-Pro-NH2; C-terminus assumed)	~2 fold
H-CFAKVLSDDMKKLK-NH2 (C-terminus assumed) [IL32-P4A]	approximately 2 fold

Same assay, conditions: SPR, 4 °C; relative to native RGS5 or IL32 peptide

Molecule	Fold decrease in binding affinity (weaker/higher KD) relative to native 14-residue peptide [fold]
H-CAPKVLSDDMKKLK-NH2 (C-terminus assumed) [IL32-F3A]	~8

Molecular target: T2, 2-aminoethanethiol (cysteamine) …
Assay: SPR
Conditions: not given

Molecule	Kd [nM]
CKGLAALPHACLER [RGS5-S11A]	350
CKGLAALPHSCLEA [RGS5-R15A]	210
CKGLAALAHSCLER [RGS5-P9A]	250
CKGAAALPHSCLER [RGS5-L5A]	220
CKGLAAAPHSCLER [RGS5-L8A]	310
CKGLAALPHSALER [RGS5-C12A]	300

What follows are molecules tested against T3, 2-aminoethanethiol (cysteamine) … (assay: SPR; Biacore T200; biotinylated ADO immobilized on a Biotin CAP chip (∼2500 to 3000 RU), peptide/protein substrates injected; 4 °C; 20 mM Hepes pH 7.5, 500 mM NaCl, 10 mM DTT, 0.1% tween-20; 50 μl/min; multicycle, equilibrium steady state affinity 1:1 binding model). Conditions: both partners purified.

Molecule	Kd [nM]	binding result
CFPKVASDDMKKLK (peptide, UniProt P24001 2-15, looked up, IL32 residues 2-15 (initiating methionine denoted as 1), L7A; source: synthetic peptide (SPPS, HPLC purified)) [IL32-L7A peptide]	570 ± 12	
CFPAVLSDDMKKLK (peptide, UniProt P24001 2-15, looked up, IL32 residues 2-15 (initiating methionine denoted as 1), K5A; source: synthetic peptide (SPPS, HPLC purified)) [IL32-K5A peptide]	140 ± 2	
SFPKVLSDDMKKLK (peptide, UniProt P24001 2-15, looked up, IL32 residues 2-15 (initiating methionine denoted as 1), Nt-cys to serine; source: synthetic peptide (SPPS, HPLC purified)) [IL32-C2S peptide]	~40000	
CAGLAALPHSCLER (peptide, UniProt O15539 2-15, looked up, RGS5 residues 2-15 (initiating methionine denoted as 1), K3A; source: synthetic peptide (SPPS, HPLC purified)) [RGS5-K3A peptide]	540 ± 88	
CDGLAALPHSCLER (peptide, UniProt O15539 2-15, looked up, RGS5 residues 2-15 (initiating methionine denoted as 1), K3D; source: synthetic peptide) [RGS5-K3D peptide]	39000 ± 1200	
CWGLAALPHSCLER (peptide, UniProt O15539 2-15, looked up, RGS5 residues 2-15 (initiating methionine denoted as 1), K3W; source: synthetic peptide) [RGS5-K3W peptide]		binds
CYGLAALPHSCLER (peptide, UniProt O15539 2-15, looked up, RGS5 residues 2-15 (initiating methionine denoted as 1), K3Y; source: synthetic peptide) [RGS5-K3Y peptide]		binds
CLGLAALPHSCLER (peptide, UniProt O15539 2-15, looked up, RGS5 residues 2-15 (initiating methionine denoted as 1), K3L; source: synthetic peptide) [RGS5-K3L peptide]		binds
CRGLAALPHSCLER (peptide, UniProt O15539 2-15, looked up, RGS5 residues 2-15 (initiating methionine denoted as 1), K3R; source: synthetic peptide) [RGS5-K3R peptide]		binds
CAPKVLSDDMKKLK (peptide, UniProt P24001 2-15, looked up, IL32 residues 2-15 (initiating methionine denoted as 1), F3A; source: synthetic peptide (SPPS, HPLC purified)) [IL32-F3A peptide]	2200 ± 72	
SKGLAALPHSCLER (peptide, UniProt O15539 2-15, looked up, RGS5 residues 2-15 (initiating methionine denoted as 1), Nt-cys to serine; source: synthetic peptide (SPPS, HPLC purified)) [RGS5-C2S peptide]	~40000	
CKALAALPHSCLER (peptide, UniProt O15539 2-15, looked up, RGS5 residues 2-15 (initiating methionine denoted as 1), G4A; source: synthetic peptide (SPPS, HPLC purified)) [RGS5-G4A peptide]	710 ± 15	
CKKLAALPHSCLER (peptide, UniProt O15539 2-15, looked up, RGS5 residues 2-15 (initiating methionine denoted as 1), G4K; source: synthetic peptide) [RGS5-G4K peptide]	12000 ± 1500	
CKPLAALPHSCLER (peptide, UniProt O15539 2-15, looked up, source: synthetic peptide) [RGS5-G4P peptide]		binds
full-length RGS5 (RGS5^FL) (natural protein) CKGLAALPHSCLERAKEIKIKLGILLQKPDSVGDLVIPYNEKPEKPAKTQKTSLDEALQWRDSLDKLLQNNYGLASFKSFLKSEFSEENLEFWIACEDYKKIKSPAKMAEKAKQIYEEFIQTEAPKEVNIDHFTKDITMKNLVEPSLSSFDMAQKRIHALMEKDSLPRFVRSEFYQELIK	3000 ± 58	
RGS5^FL-C2S (natural protein) SKGLAALPHSCLERAKEIKIKLGILLQKPDSVGDLVIPYNEKPEKPAKTQKTSLDEALQWRDSLDKLLQNNYGLASFKSFLKSEFSEENLEFWIACEDYKKIKSPAKMAEKAKQIYEEFIQTEAPKEVNIDHFTKDITMKNLVEPSLSSFDMAQKRIHALMEKDSLPRFVRSEFYQELIK	63000 ± 610	
CFAKVLSDDMKKLK (peptide, UniProt P24001 2-15, looked up, IL32 residues 2-15 (initiating methionine denoted as 1), P4A; source: synthetic peptide (SPPS, HPLC purified)) [IL32-P4A peptide]	150 ± 1.2	

Source: paper PMC11406360, “The enzymatic oxygen sensor cysteamine dioxygenase binds its protein substrates through their N-termini” (The Journal of Biological Chemistry, 2024)
